Source: patent publication US20150344570A1 (published 2015)

T1: FcγRIIb extracellular domain with C-terminal His tag (human, UniProt P31994 43-217)
T1 construct: extracellular domain; soluble analyte in Biacore; also called FcgRIIb; not shown: His tag at the C terminus
T1 sequence (looked up): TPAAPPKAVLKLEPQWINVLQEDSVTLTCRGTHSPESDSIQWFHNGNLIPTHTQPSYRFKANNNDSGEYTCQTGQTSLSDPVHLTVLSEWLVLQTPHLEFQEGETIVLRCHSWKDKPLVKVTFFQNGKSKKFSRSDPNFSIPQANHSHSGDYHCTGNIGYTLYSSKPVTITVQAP

T2: FcγRIIb extracellular domain with C-terminal His tag (human, UniProt P31994 43-217)
T2 construct: extracellular domain; expressed in FreeStyle293 cells; analyte in Biacore; also called FcgRIIb; 2b
T2 sequence (looked up): T1 sequence (looked up)

B1: GpH7-A5/GpH7-B3 variant E333_12R/GpL16-k0 (antibody, human IgG1, kappa)
heavy 1: not shown
heavy 2: not shown
light: DIVMTQSPLSLPVTPGEPASISCQASESLVHSNRNTYLHWYLQKPGQSPQLLIYKVSNRFSGVPDRFSGSGSGTDFTLKISRVEAEDVGVYYCSQNTHVPPTFGQGTKVEIERTVAAPSVFIFPPSDEQLKSGTASVVCLLNNFYPREAKVQWKVDNALQSGNSQESVTEQDSKDSTYSLSSTLTLSKADYEKHKVYACEVTHQGLSSPVTKSFNRGEC
notes: change in the GpH7-B3 H chain only; also called He Ab
B2: GpH7-A5/GpH7-B3 variant E333_15Y/GpL16-k0 (antibody, human IgG1, kappa)
heavy 1: not shown
heavy 2: not shown
light: B1 light
notes: as for B1
B3: GpH7-A5/GpH7-B3 variant I336_03V/GpL16-k0 (antibody, human IgG1, kappa)
heavy 1: not shown
heavy 2: not shown
light: B1 light
notes: as for B1
B4: GpH7-A5/GpH7-B3 variant A327_06M/GpL16-k0 (antibody, human IgG1, kappa)
heavy 1: not shown
heavy 2: not shown
light: B1 light
notes: as for B1
B5: GpH7-A5/GpH7-B3 variant A330_10E/GpL16-k0 (antibody, human IgG1, kappa)
heavy 1: not shown
heavy 2: not shown
light: B1 light
notes: as for B1
B6: GpH7-A5/GpH7-B3 variant K334_01G/GpL16-k0 (antibody, human IgG1, kappa)
heavy 1: not shown
heavy 2: not shown
light: B1 light
notes: as for B1
B7: GpH7-A5/GpH7-B3 variant E333_05P/GpL16-k0 (antibody, human IgG1, kappa)
heavy 1: not shown
heavy 2: not shown
light: B1 light
notes: as for B1
B8: GpH7-A5/GpH7-B3 variant A330_15Y/GpL16-k0 (antibody, human IgG1, kappa)
heavy 1: not shown
heavy 2: not shown
light: B1 light
notes: as for B1
B9: GpH7-A5/GpH7-B3 variant E333_01G/GpL16-k0 (antibody, human IgG1, kappa)
heavy 1: not shown
heavy 2: not shown
light: B1 light
notes: as for B1
B10: GpH7-A5/GpH7-B3 variant A330_07I/GpL16-k0 (antibody, human IgG1, kappa)
heavy 1: not shown
heavy 2: not shown
light: B1 light
notes: as for B1
B11: GpH7-A5/GpH7-B3 variant A330_18N/GpL16-k0 (antibody, human IgG1, kappa)
heavy 1: not shown
heavy 2: not shown
light: B1 light
notes: as for B1
B12: GpH7-A5/GpH7-B3 variant A330_03V/GpL16-k0 (antibody, human IgG1, kappa)
heavy 1: not shown
heavy 2: not shown
light: B1 light
notes: as for B1
B13: GpH7-A5/GpH7-B3 variant E333_16H/GpL16-k0 (antibody, human IgG1, kappa)
heavy 1: not shown
heavy 2: not shown
light: B1 light
notes: as for B1
B14: GpH7-A5/GpH7-B3 variant A330_16H/GpL16-k0 (antibody, human IgG1, kappa)
heavy 1: not shown
heavy 2: not shown
light: B1 light
notes: as for B1
B15: GpH7-A5/GpH7-B3 variant I332_12R/GpL16-k0 (antibody, human IgG1, kappa)
heavy 1: not shown
heavy 2: not shown
light: B1 light
notes: as for B1
B16: GpH7-A5/GpH7-B3 variant A330_06M/GpL16-k0 (antibody, human IgG1, kappa)
heavy 1: not shown
heavy 2: not shown
light: B1 light
notes: as for B1
B17: GpH7-A5/GpH7-B3 variant A327_03V/GpL16-k0 (antibody, human IgG1, kappa)
heavy 1: not shown
heavy 2: not shown
light: B1 light
notes: as for B1
B18: GpH7-A5/GpH7-B3 variant I336_01G/GpL16-k0 (antibody, human IgG1, kappa)
heavy 1: not shown
heavy 2: not shown
light: B1 light
notes: as for B1
B19: GpH7-A5/GpH7-B3 variant E333_07I/GpL16-k0 (antibody, human IgG1, kappa)
heavy 1: not shown
heavy 2: not shown
light: B1 light
notes: as for B1
B20: GpH7-A5/GpH7-B3 variant E333_06M/GpL16-k0 (antibody, human IgG1, kappa)
heavy 1: not shown
heavy 2: not shown
light: B1 light
notes: as for B1
B21: GpH7-A5/GpH7-B3 variant A330_08L/GpL16-k0 (antibody, human IgG1, kappa)
heavy 1: not shown
heavy 2: not shown
light: B1 light
notes: as for B1
B22: GpH7-A5/GpH7-B3 variant A330_09D/GpL16-k0 (antibody, human IgG1, kappa)
heavy 1: not shown
heavy 2: not shown
light: B1 light
notes: as for B1
B23: GpH7-A5/GpH7-B3 variant A327_13S/GpL16-k0 (antibody, human IgG1, kappa)
heavy 1: not shown
heavy 2: not shown
light: B1 light
notes: as for B1
B24: GpH7-A5/GpH7-B3 variant E333_04F/GpL16-k0 (antibody, human IgG1, kappa)
heavy 1: not shown
heavy 2: not shown
light: B1 light
notes: as for B1
B25: GpH7-A5/GpH7-B3 variant A330_14T/GpL16-k0 (antibody, human IgG1, kappa)
heavy 1: not shown
heavy 2: not shown
light: B1 light
notes: as for B1
B26: GpH7-A5/GpH7-B3 variant E333_11K/GpL16-k0 (antibody, human IgG1, kappa)
heavy 1: not shown
heavy 2: not shown
light: B1 light
notes: as for B1
B27: GpH7-A5/GpH7-B3 variant I336_02A/GpL16-k0 (antibody, human IgG1, kappa)
heavy 1: not shown
heavy 2: not shown
light: B1 light
notes: as for B1
B28: GpH7-A5/GpH7-B3 variant E333_02A/GpL16-k0 (antibody, human IgG1, kappa)
heavy 1: not shown
heavy 2: not shown
light: B1 light
notes: as for B1
B29: GpH7-A5/GpH7-B3 variant A330_04F/GpL16-k0 (antibody, human IgG1, kappa)
heavy 1: not shown
heavy 2: not shown
light: B1 light
notes: as for B1
B30: GpH7-A5/GpH7-B3 variant E333_03V/GpL16-k0 (antibody, human IgG1, kappa)
heavy 1: not shown
heavy 2: not shown
light: B1 light
notes: as for B1
B31: GpH7-A5/GpH7-B3 variant A330_19Q/GpL16-k0 (antibody, human IgG1, kappa)
heavy 1: not shown
heavy 2: not shown
light: B1 light
notes: as for B1
B32: GpH7-A5/GpH7-B3 variant E333_13S/GpL16-k0 (antibody, human IgG1, kappa)
heavy 1: not shown
heavy 2: not shown
light: B1 light
notes: as for B1
B33: GpH7-A5/GpH7-B3 variant E333_14T/GpL16-k0 (antibody, human IgG1, kappa)
heavy 1: not shown
heavy 2: not shown
light: B1 light
notes: as for B1
B34: GpH7-A5/GpH7-B3 variant E333_09D/GpL16-k0 (antibody, human IgG1, kappa)
heavy 1: not shown
heavy 2: not shown
light: B1 light
notes: as for B1
B35: GpH7-A5/GpH7-B3 variant E333_08L/GpL16-k0 (antibody, human IgG1, kappa)
heavy 1: not shown
heavy 2: not shown
light: B1 light
notes: as for B1
B36: GpH7-A5/GpH7-B3 variant A330_11K/GpL16-k0 (antibody, human IgG1, kappa)
heavy 1: not shown
heavy 2: not shown
light: B1 light
notes: as for B1
B37: GpH7-A5/GpH7-B3 variant A330_20W/GpL16-k0 (antibody, human IgG1, kappa)
heavy 1: not shown
heavy 2: not shown
light: B1 light
notes: as for B1
B38: GpH7-A5/GpH7-B3 variant Y300_13S/GpL16-k0 (antibody, human IgG1, kappa)
heavy 1: not shown
heavy 2: not shown
light: B1 light
notes: He Ab; IgG1, mutation in one H chain
B39: GpH7-A5/GpH7-B3 variant Y300_16H/GpL16-k0 (antibody, human IgG1, kappa)
heavy 1: not shown
heavy 2: not shown
light: B1 light
notes: as for B38
B40: GpH7-A5/GpH7-B3 variant Y300_14T/GpL16-k0 (antibody, human IgG1, kappa)
heavy 1: not shown
heavy 2: not shown
light: B1 light
notes: as for B38
B41: GpH7-A5/GpH7-B3 variant Y300_20W/GpL16-k0 (antibody, human IgG1, kappa)
heavy 1: not shown
heavy 2: not shown
light: B1 light
notes: as for B38

Target: T3, FcγRIa extracellular domain with C-terminal His tag (human, UniProt P12314 16-292)
T3 construct: extracellular domain; soluble analyte in Biacore; also called FcgRI; not shown: His tag at the C terminus
Test: SPR, binding relative to GpH7-A5/GpH7-B3/GpL16-k0 = 100
T3 sequence (P12314 16-292): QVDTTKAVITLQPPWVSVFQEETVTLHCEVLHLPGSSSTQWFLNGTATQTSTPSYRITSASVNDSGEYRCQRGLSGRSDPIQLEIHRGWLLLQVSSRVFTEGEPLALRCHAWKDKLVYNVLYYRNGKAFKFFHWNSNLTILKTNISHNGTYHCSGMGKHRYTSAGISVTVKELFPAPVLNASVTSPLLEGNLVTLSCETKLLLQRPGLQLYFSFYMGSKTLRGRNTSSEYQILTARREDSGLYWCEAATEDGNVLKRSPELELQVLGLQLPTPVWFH

Binder | He/Con_1a
B1 | 102 % of control
B2 | 101 % of control
B3 | 105 % of control
B4 | 103 % of control
B5 | 107 % of control
B6 | 104 % of control
B7 | 102 % of control
B8 | 105 % of control
B9 | 103 % of control
B10 | 105 % of control
B11 | 106 % of control
B12 | 106 % of control
B13 | 101 % of control
B14 | 106 % of control
B15 | 100 % of control
B16 | 105 % of control
B17 | 103 % of control
B18 | 109 % of control
B19 | 102 % of control

Binder | He/Con_1a
B20 | 102 % of control
B21 | 107 % of control
B22 | 109 % of control
B23 | 102 % of control
B24 | 102 % of control
B25 | 105 % of control
B26 | 102 % of control
B27 | 106 % of control
B28 | 103 % of control
B29 | 106 % of control
B30 | 105 % of control
B31 | 105 % of control
B32 | 103 % of control
B33 | 102 % of control
B34 | 104 % of control
B35 | 102 % of control
B36 | 103 % of control
B37 | 108 % of control

Target: T1, FcγRIIb extracellular domain with …
Test: as above

Binder | He/Con_2b
B1 | 80.4 % of control
B2 | 94.4 % of control
B3 | 90.3 % of control
B4 | 59.5 % of control
B5 | 70.1 % of control
B6 | 92.5 % of control
B7 | 97.7 % of control
B8 | 95 % of control
B9 | 81.4 % of control
B10 | 67.1 % of control
B11 | 63.7 % of control
B12 | 52.4 % of control
B13 | 83.3 % of control
B14 | 87.6 % of control
B15 | 48.9 % of control
B16 | 80.5 % of control
B17 | 94.7 % of control
B18 | 90.1 % of control
B19 | 96.2 % of control

Binder | He/Con_2b
B20 | 85.4 % of control
B21 | 70.5 % of control
B22 | 55.6 % of control
B23 | 79.5 % of control
B24 | 94.6 % of control
B25 | 77.9 % of control
B26 | 80.6 % of control
B27 | 84.9 % of control
B28 | 83.8 % of control
B29 | 92.8 % of control
B30 | 93.2 % of control
B31 | 90.8 % of control
B32 | 81.8 % of control
B33 | 86.1 % of control
B34 | 94.3 % of control
B35 | 95 % of control
B36 | 95 % of control
B37 | 76.1 % of control

Target: T4, FcγRIa extracellular domain with C-terminal His tag (human, UniProt P12314 16-292)
T4 construct: extracellular domain; expressed in FreeStyle293 cells; analyte in Biacore; also called FcgRI; 1a
Test: SPR (Biacore), captured antibody, FcγR as analyte; relative binding
T4 sequence (P12314 16-292): as above

Binder | He/Con_1a
B38 | 111 % of HeCon Ab (GpH7-A5/GpH7-B3/GpL16-k0 = 100)
B39 | 111 % of HeCon Ab (GpH7-A5/GpH7-B3/GpL16-k0 = 100)
B40 | 112 % of HeCon Ab (GpH7-A5/GpH7-B3/GpL16-k0 = 100)
B41 | 112 % of HeCon Ab (GpH7-A5/GpH7-B3/GpL16-k0 = 100)

Target: T2, FcγRIIb extracellular domain with …
Test: as above

Binder | He/Con_2b
B38 | 53.9 % of HeCon Ab (GpH7-A5/GpH7-B3/GpL16-k0 = 100)
B39 | 87 % of HeCon Ab (GpH7-A5/GpH7-B3/GpL16-k0 = 100)
B40 | 55.6 % of HeCon Ab (GpH7-A5/GpH7-B3/GpL16-k0 = 100)
B41 | 84.1 % of HeCon Ab (GpH7-A5/GpH7-B3/GpL16-k0 = 100)
